# Reference: patent US20230189773A1, “ENGINEERED CELLS, ANIMAL MODELS, AND USES THEREOF FOR MODELING LOW GRADE GLIOMA (LGG)” (Washington University, priority 2021, published 2023)
# Entries after “also recorded” stand apart in the source; their conditions may differ.
# B1: recombinant murine Cxcl10 protein: murine recombinant Cxcl10 (PeproTech), a cytokine belonging to the CXC chemokine family (protein, UniProt P17515 22-98, looked up)
# C-X-C motif chemokine 10: IPLARTVRCNCIHIDDGPVRMRAIGKLEIIPASLSCPRVEIIATMKKNDEQRCLNPESKTIKNLMKAFSQKRSKRAP
# Key:
# [1] = test system: NF1-null iNPCs, iGRPs and iOPCs; experiment: In vitro PD0325901 treatment of iNPCs, iGRPs and iOPCs (Ki67, cleaved caspase-3 immunocytochemistry); assay type: cell-based, human; conditions: 10 nM, 24 h
# Protocol: (§1) Twenty 4-week-old Rag1^−/− mice of both sexes harboring NF1-null iNPC-LGGs 1 month post-injection were intraperitoneally injected either with 10% DMSO in saline or with 5 mg/kg/day PD0325901 (Sigma-Aldrich), 6 days a week, for a total of four weeks. Treated mice were collected for histopathologic analysis. For in vitro experiments, iNPCs, iGRPs and iOPCs were treated with 10 nM PD0325901 for 24 h prior to immunocytochemical analysis.
# (§2) Immunocytochemistry was performed on hiPSCs, iNPCs, iGRPs, iOPCs and astrocytes using the primary antibodies described in Additional file 1: Table 51. […] Appropriate secondary Alexa-Fluor-conjugated secondary antibodies diluted to 1:200 were employed and bis-benzamide (Hoechst) was used as a nuclear counterstain. Cells were mounted with Immu-mount (Fisher) and imaged on a Leica DMi1 fluorescent microscope using the Leica LAS X software, as per manufacturer's instructions.
# NF1-null iNPC-LGGs = experiment: PD0325901 treatment of Rag1-/- mice harboring NF1-null iNPC-LGGs; assay type: in vivo, mouse; conditions: 5 mg/kg/day intraperitoneal, 6 days a week, four weeks, from 1 mpi
# Protocol: as §1
# Injected mice were transcardially perfused at 1, 3 or 6 months post-injection, initially with Ringer's solution, and then followed by ice-cold 4% paraformaldehyde. Whole mouse brains were harvested, post-fixed in 4% PFA and dehydrated in 70% ethanol. Dehydrated samples were then paraffin-embedded and serially sectioned (5 μm). Hematoxylin and eosin (H&E), as well as antibody immunohistochemical staining, were performed using the primary antibodies, Vectastain ABC kit (Vector Laboratories) and appropriate biotinylated secondary antibodies provided in TABLE 1.
# Immunostaining was performed using the primary antibodies listed in TABLE 1 with appropriate Alexa Fluor-conjugated secondary antibodies. Bis-benzamide (Hoechst) was used as a nuclear counterstain.
# NF1-null iNPCs [2] = experiment: GFAP+ astrocytic differentiation of NF1-null iNPCs after recombinant Cxcl10; assay type: cell-based, human; conditions: for increase in GFAP+ astrocytic differentiation: NF1-null iNPCs
# Protocol: as §2
# (§3) Cxcl10 cDNA (Sino Biological) and lentiviral packaging vectors, or KIAA1549:BRAF adenoviral DNA, were transfected in HEK293T cells using Fugene HD (Promega) following the manufacturer's instructions. Viral supernatants were collected 48 h post-transfection, filtered, and used to directly infect iNPCs and iGRPs for 24 h. Cxcl10-GFP expression was confirmed by Western blotting as previously described. KIAA1549:BRAF-infected cells were puromycin-selected for 2 weeks prior to further expansion. Infected cells were used for intracranial injections in Rag1^−/− neonatal mice. For cell proliferation, cell death and differentiation analyses, iNPCs were treated with 25 or 100 pg/mL of murine recombinant Cxcl10 (PeproTech) for 24 h. Each experiment was performed a minimum of three times on independently generated samples.
# NF1-null iNPCs [3] = experiment: Cleaved caspase-3+ cells (programmed cell death) in NF1-null iNPCs after recombinant Cxcl10; assay type: cell-based, human; conditions: for increase in programmed cell death (cleaved caspase-3+ cells): NF1-null iNPCs
# Protocol: as §2, §3
# NF1-null iNPCs [4] = experiment: Direct cell count of NF1-null iNPCs after recombinant Cxcl10; assay type: cell-based, human; conditions: for decrease in cell number (direct cell count): NF1-null iNPCs
# Protocol: RAS activity (ThermoFisher), cAMP (Fisher) detection, BrdU proliferation assays (Roche) and direct cell counting were performed according to the manufacturer's instructions. Cxcl10 (Ray Biotech) ELISA assays were performed according to the manufacturer's instructions. Each assay was performed using a minimum of three independently generated biological replicates.
# as §3
# [5] = relative to vehicle-treated LGGs
# [6] = 25 pg/mL recombinant Cxcl10, 24 h
# [7] = 100 pg/mL recombinant Cxcl10, 24 h
# [8] = range over ectopic Cxcl10 expression and recombinant Cxcl10 treatments (FIG. 19B)
# [9] = range over ectopic Cxcl10 expression or 25 or 100 pg/mL recombinant Cxcl10 (FIG. 19A)
Molecule,apoptosis (cleaved caspase-3) [1],cell proliferation (Ki67) [1],presence of Ku80+ iNPC-LGGs after treatment (NF1-null iNPC-LGGs),tumor cell apoptosis (TUNEL+ cells) (NF1-null iNPC-LGGs; [5]),tumor cell proliferation (Ki67+ cells) (NF1-null iNPC-LGGs; [5]),increase in GFAP+ astrocytic differentiation (NF1-null iNPCs [2]; [6]) [fold],increase in GFAP+ astrocytic differentiation (NF1-null iNPCs [2]; [7]) [fold],differentiated GFAP+ cells undergoing apoptosis (cleaved caspase-3+) (NF1-null iNPCs [2]; [8]),share of total cells undergoing apoptosis (cleaved caspase-3+) that are GFAP+ (NF1-null iNPCs [2]; [8]),increase in programmed cell death (cleaved caspase-3+ cells) (NF1-null iNPCs [3]; [6]) [fold],increase in programmed cell death (cleaved caspase-3+ cells) (NF1-null iNPCs [3]; [7]) [fold],percent of cleaved caspase-3+ cells increases (NF1-null iNPCs [3]; [9]),decrease in cell number (direct cell count) (NF1-null iNPCs [4]; [6]) [%],decrease in cell number (direct cell count) (NF1-null iNPCs [4]; [7]) [%],NF1-null iNPC cell numbers decrease (direct cell count) (NF1-null iNPCs [4]; [9])
O=C(NOC[C@H](O)CO)c1ccc(F)c(F)c1Nc1ccc(I)cc1F [PD0325901],increased hiPSC-LGG cell apoptosis; also recorded: increases apoptosis,reduced proliferation; also recorded: decreased cell proliferation; also recorded: decreases proliferation,still detectable,increased hiPSC-LGG cell apoptosis; also recorded: increased tumor cell apoptosis,reduced tumor cell proliferation; also recorded: decreased,–,–,–,–,–,–,–,–,–,–
B1,–,–,–,–,–,8.2,20.5,95-100%,83.3-88.8%,4.6,20.5,8.3-20.5 fold,9,13,9-20%
